According to publication PMC4468861:

Target: N-terminally GST-tagged M. jannaschii SR(aa93-408) (M. jannaschii) (UniProt Q57739)
Chain of UniProt Q57739 (Q57739 93-408): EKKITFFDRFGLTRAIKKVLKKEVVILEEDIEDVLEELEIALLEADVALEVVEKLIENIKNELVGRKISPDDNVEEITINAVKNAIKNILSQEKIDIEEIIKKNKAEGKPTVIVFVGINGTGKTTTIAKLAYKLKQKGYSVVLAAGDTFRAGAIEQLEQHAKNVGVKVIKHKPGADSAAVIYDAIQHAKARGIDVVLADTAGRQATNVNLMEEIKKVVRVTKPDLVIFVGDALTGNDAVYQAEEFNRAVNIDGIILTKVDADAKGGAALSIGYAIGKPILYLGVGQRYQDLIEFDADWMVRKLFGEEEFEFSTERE

M. jannaschii SRP core complex containing fl-SRP54-ss, SRP19 and SRP RNA (from UniProt Q57565 1-451; Q58440 1-87)
GTPase rate of the SRP-SR complex in multiple turnover reactions (0.5 uM SRP, SR 0-25 uM, 25 °C), against SRP complexes containing SRP54-ss as the text prints (fl-SRP54 by the legend of Fig. 1b): 20 fold
